# Experimental data: patent publication US20210388087A1 (Chugai, published 2021)
# B1: H183/L072 VH Y97L (antibody, name in Kabat numbering, V domains shown)
# VH: QVQLVESGGGLVQPGRSLRLSCAASGFTFSNAWMHWVRQAPGKGLEWVAQIKDKGNAYAAYYAPSVKGRFTISRDDSKNSIYLQMNSLKTEDTAVYYCHYVHLASASTVLPAFGVDAWGQGTTVTVSS
# VL: DIVMTQSPLSLPVTPGEPASISCQASQELVHMNRNTYLHWYQQKPGQAPRLLIYKVSNRFPGVPDRFSGSGSGTDFTLKISRVEAEDVGVYYCAQGTSVPFTFGQGTKLEIK
# B2: H183/L072 VH Y97M (antibody, name in Kabat numbering, V domains shown)
# VH: QVQLVESGGGLVQPGRSLRLSCAASGFTFSNAWMHWVRQAPGKGLEWVAQIKDKGNAYAAYYAPSVKGRFTISRDDSKNSIYLQMNSLKTEDTAVYYCHYVHMASASTVLPAFGVDAWGQGTTVTVSS
# VL: DIVMTQSPLSLPVTPGEPASISCQASQELVHMNRNTYLHWYQQKPGQAPRLLIYKVSNRFPGVPDRFSGSGSGTDFTLKISRVEAEDVGVYYCAQGTSVPFTFGQGTKLEIK
# B3: H183/L072 VH Y97P (antibody, name in Kabat numbering, V domains shown)
# VH: QVQLVESGGGLVQPGRSLRLSCAASGFTFSNAWMHWVRQAPGKGLEWVAQIKDKGNAYAAYYAPSVKGRFTISRDDSKNSIYLQMNSLKTEDTAVYYCHYVHPASASTVLPAFGVDAWGQGTTVTVSS
# VL: DIVMTQSPLSLPVTPGEPASISCQASQELVHMNRNTYLHWYQQKPGQAPRLLIYKVSNRFPGVPDRFSGSGSGTDFTLKISRVEAEDVGVYYCAQGTSVPFTFGQGTKLEIK
# B4: GLS3000 H27dA (antibody, name in Kabat numbering, V domains shown)
# VH: QVQLVESGGGVVQPGRSLRLSCAASGFTFSNAWMHWVRQAPGKGLEWVAQIKAKSNNYATYYAESVKGRFTISRDDSKNSLYLQMNSLKTEDTAVYYCRYVHYGAYYGVDAWGQGTTVTVSS
# VL: DIVMTQSPLSLPVTPGEPASISCRSSQSLVASNRNTYLHWYQQKPGQAPRLLIYKVSNRFSGVPDRFSGSGSGTDFTLKISRVEAEDVGVYYCGQGTQVPYTFGQGTKLEIK
# notes: one-arm IgG as m2
# B5: GLS3000 F55A (antibody, name in Kabat numbering, V domains shown)
# VH: QVQLVESGGGVVQPGRSLRLSCAASGFTFSNAWMHWVRQAPGKGLEWVAQIKAKSNNYATYYAESVKGRFTISRDDSKNSLYLQMNSLKTEDTAVYYCRYVHYGAYYGVDAWGQGTTVTVSS
# VL: DIVMTQSPLSLPVTPGEPASISCRSSQSLVHSNRNTYLHWYQQKPGQAPRLLIYKVSNRASGVPDRFSGSGSGTDFTLKISRVEAEDVGVYYCGQGTQVPYTFGQGTKLEIK
# notes: one-arm IgG as m2
# B6: GLS3000 F55T (antibody, name in Kabat numbering, V domains shown)
# VH: QVQLVESGGGVVQPGRSLRLSCAASGFTFSNAWMHWVRQAPGKGLEWVAQIKAKSNNYATYYAESVKGRFTISRDDSKNSLYLQMNSLKTEDTAVYYCRYVHYGAYYGVDAWGQGTTVTVSS
# VL: DIVMTQSPLSLPVTPGEPASISCRSSQSLVHSNRNTYLHWYQQKPGQAPRLLIYKVSNRTSGVPDRFSGSGSGTDFTLKISRVEAEDVGVYYCGQGTQVPYTFGQGTKLEIK
# notes: one-arm IgG as m2
# B7: GLS3000 F55H (antibody, name in Kabat numbering, V domains shown)
# VH: QVQLVESGGGVVQPGRSLRLSCAASGFTFSNAWMHWVRQAPGKGLEWVAQIKAKSNNYATYYAESVKGRFTISRDDSKNSLYLQMNSLKTEDTAVYYCRYVHYGAYYGVDAWGQGTTVTVSS
# VL: DIVMTQSPLSLPVTPGEPASISCRSSQSLVHSNRNTYLHWYQQKPGQAPRLLIYKVSNRHSGVPDRFSGSGSGTDFTLKISRVEAEDVGVYYCGQGTQVPYTFGQGTKLEIK
# notes: one-arm IgG as m2
# B8: GLS3000 F55W (antibody, name in Kabat numbering, V domains shown)
# VH: QVQLVESGGGVVQPGRSLRLSCAASGFTFSNAWMHWVRQAPGKGLEWVAQIKAKSNNYATYYAESVKGRFTISRDDSKNSLYLQMNSLKTEDTAVYYCRYVHYGAYYGVDAWGQGTTVTVSS
# VL: DIVMTQSPLSLPVTPGEPASISCRSSQSLVHSNRNTYLHWYQQKPGQAPRLLIYKVSNRWSGVPDRFSGSGSGTDFTLKISRVEAEDVGVYYCGQGTQVPYTFGQGTKLEIK
# notes: one-arm IgG as m2
# B9: GLS3000 F55M (antibody, name in Kabat numbering, V domains shown)
# VH: QVQLVESGGGVVQPGRSLRLSCAASGFTFSNAWMHWVRQAPGKGLEWVAQIKAKSNNYATYYAESVKGRFTISRDDSKNSLYLQMNSLKTEDTAVYYCRYVHYGAYYGVDAWGQGTTVTVSS
# VL: DIVMTQSPLSLPVTPGEPASISCRSSQSLVHSNRNTYLHWYQQKPGQAPRLLIYKVSNRMSGVPDRFSGSGSGTDFTLKISRVEAEDVGVYYCGQGTQVPYTFGQGTKLEIK
# notes: one-arm IgG as m2
# B10: GLS3000 F55E (antibody, name in Kabat numbering, V domains shown)
# VH: QVQLVESGGGVVQPGRSLRLSCAASGFTFSNAWMHWVRQAPGKGLEWVAQIKAKSNNYATYYAESVKGRFTISRDDSKNSLYLQMNSLKTEDTAVYYCRYVHYGAYYGVDAWGQGTTVTVSS
# VL: DIVMTQSPLSLPVTPGEPASISCRSSQSLVHSNRNTYLHWYQQKPGQAPRLLIYKVSNRESGVPDRFSGSGSGTDFTLKISRVEAEDVGVYYCGQGTQVPYTFGQGTKLEIK
# notes: one-arm IgG as m2
# B11: GLS3000 F55L (antibody, name in Kabat numbering, V domains shown)
# VH: QVQLVESGGGVVQPGRSLRLSCAASGFTFSNAWMHWVRQAPGKGLEWVAQIKAKSNNYATYYAESVKGRFTISRDDSKNSLYLQMNSLKTEDTAVYYCRYVHYGAYYGVDAWGQGTTVTVSS
# VL: DIVMTQSPLSLPVTPGEPASISCRSSQSLVHSNRNTYLHWYQQKPGQAPRLLIYKVSNRLSGVPDRFSGSGSGTDFTLKISRVEAEDVGVYYCGQGTQVPYTFGQGTKLEIK
# notes: one-arm IgG as m2
# B12: GLS3000 F55G (antibody, name in Kabat numbering, V domains shown)
# VH: QVQLVESGGGVVQPGRSLRLSCAASGFTFSNAWMHWVRQAPGKGLEWVAQIKAKSNNYATYYAESVKGRFTISRDDSKNSLYLQMNSLKTEDTAVYYCRYVHYGAYYGVDAWGQGTTVTVSS
# VL: DIVMTQSPLSLPVTPGEPASISCRSSQSLVHSNRNTYLHWYQQKPGQAPRLLIYKVSNRGSGVPDRFSGSGSGTDFTLKISRVEAEDVGVYYCGQGTQVPYTFGQGTKLEIK
# notes: one-arm IgG as m2
# B13: GLS3000 F55N (antibody, name in Kabat numbering, V domains shown)
# VH: QVQLVESGGGVVQPGRSLRLSCAASGFTFSNAWMHWVRQAPGKGLEWVAQIKAKSNNYATYYAESVKGRFTISRDDSKNSLYLQMNSLKTEDTAVYYCRYVHYGAYYGVDAWGQGTTVTVSS
# VL: DIVMTQSPLSLPVTPGEPASISCRSSQSLVHSNRNTYLHWYQQKPGQAPRLLIYKVSNRNSGVPDRFSGSGSGTDFTLKISRVEAEDVGVYYCGQGTQVPYTFGQGTKLEIK
# notes: one-arm IgG as m2
# B14: GLS3000 F55I (antibody, name in Kabat numbering, V domains shown)
# VH: QVQLVESGGGVVQPGRSLRLSCAASGFTFSNAWMHWVRQAPGKGLEWVAQIKAKSNNYATYYAESVKGRFTISRDDSKNSLYLQMNSLKTEDTAVYYCRYVHYGAYYGVDAWGQGTTVTVSS
# VL: DIVMTQSPLSLPVTPGEPASISCRSSQSLVHSNRNTYLHWYQQKPGQAPRLLIYKVSNRISGVPDRFSGSGSGTDFTLKISRVEAEDVGVYYCGQGTQVPYTFGQGTKLEIK
# notes: one-arm IgG as m2
# B15: GLS3000 F55Q (antibody, name in Kabat numbering, V domains shown)
# VH: QVQLVESGGGVVQPGRSLRLSCAASGFTFSNAWMHWVRQAPGKGLEWVAQIKAKSNNYATYYAESVKGRFTISRDDSKNSLYLQMNSLKTEDTAVYYCRYVHYGAYYGVDAWGQGTTVTVSS
# VL: DIVMTQSPLSLPVTPGEPASISCRSSQSLVHSNRNTYLHWYQQKPGQAPRLLIYKVSNRQSGVPDRFSGSGSGTDFTLKISRVEAEDVGVYYCGQGTQVPYTFGQGTKLEIK
# notes: one-arm IgG as m2
# B16: GLS3000 F55S (antibody, name in Kabat numbering, V domains shown)
# VH: QVQLVESGGGVVQPGRSLRLSCAASGFTFSNAWMHWVRQAPGKGLEWVAQIKAKSNNYATYYAESVKGRFTISRDDSKNSLYLQMNSLKTEDTAVYYCRYVHYGAYYGVDAWGQGTTVTVSS
# VL: DIVMTQSPLSLPVTPGEPASISCRSSQSLVHSNRNTYLHWYQQKPGQAPRLLIYKVSNRSSGVPDRFSGSGSGTDFTLKISRVEAEDVGVYYCGQGTQVPYTFGQGTKLEIK
# notes: one-arm IgG as m2
# B17: GLS3000 F55V (antibody, name in Kabat numbering, V domains shown)
# VH: QVQLVESGGGVVQPGRSLRLSCAASGFTFSNAWMHWVRQAPGKGLEWVAQIKAKSNNYATYYAESVKGRFTISRDDSKNSLYLQMNSLKTEDTAVYYCRYVHYGAYYGVDAWGQGTTVTVSS
# VL: DIVMTQSPLSLPVTPGEPASISCRSSQSLVHSNRNTYLHWYQQKPGQAPRLLIYKVSNRVSGVPDRFSGSGSGTDFTLKISRVEAEDVGVYYCGQGTQVPYTFGQGTKLEIK
# notes: one-arm IgG as m2
# B18: GLS3000 F55P (antibody, name in Kabat numbering, V domains shown)
# VH: QVQLVESGGGVVQPGRSLRLSCAASGFTFSNAWMHWVRQAPGKGLEWVAQIKAKSNNYATYYAESVKGRFTISRDDSKNSLYLQMNSLKTEDTAVYYCRYVHYGAYYGVDAWGQGTTVTVSS
# VL: DIVMTQSPLSLPVTPGEPASISCRSSQSLVHSNRNTYLHWYQQKPGQAPRLLIYKVSNRPSGVPDRFSGSGSGTDFTLKISRVEAEDVGVYYCGQGTQVPYTFGQGTKLEIK
# notes: one-arm IgG as m2
# B19: GLS3000 F55D (antibody, name in Kabat numbering, V domains shown)
# VH: QVQLVESGGGVVQPGRSLRLSCAASGFTFSNAWMHWVRQAPGKGLEWVAQIKAKSNNYATYYAESVKGRFTISRDDSKNSLYLQMNSLKTEDTAVYYCRYVHYGAYYGVDAWGQGTTVTVSS
# VL: DIVMTQSPLSLPVTPGEPASISCRSSQSLVHSNRNTYLHWYQQKPGQAPRLLIYKVSNRDSGVPDRFSGSGSGTDFTLKISRVEAEDVGVYYCGQGTQVPYTFGQGTKLEIK
# notes: one-arm IgG as m2
# B20: GLS3000 F55R (antibody, name in Kabat numbering, V domains shown)
# VH: QVQLVESGGGVVQPGRSLRLSCAASGFTFSNAWMHWVRQAPGKGLEWVAQIKAKSNNYATYYAESVKGRFTISRDDSKNSLYLQMNSLKTEDTAVYYCRYVHYGAYYGVDAWGQGTTVTVSS
# VL: DIVMTQSPLSLPVTPGEPASISCRSSQSLVHSNRNTYLHWYQQKPGQAPRLLIYKVSNRRSGVPDRFSGSGSGTDFTLKISRVEAEDVGVYYCGQGTQVPYTFGQGTKLEIK
# notes: one-arm IgG as m2
# B21: GLS3000 F55K (antibody, name in Kabat numbering, V domains shown)
# VH: QVQLVESGGGVVQPGRSLRLSCAASGFTFSNAWMHWVRQAPGKGLEWVAQIKAKSNNYATYYAESVKGRFTISRDDSKNSLYLQMNSLKTEDTAVYYCRYVHYGAYYGVDAWGQGTTVTVSS
# VL: DIVMTQSPLSLPVTPGEPASISCRSSQSLVHSNRNTYLHWYQQKPGQAPRLLIYKVSNRKSGVPDRFSGSGSGTDFTLKISRVEAEDVGVYYCGQGTQVPYTFGQGTKLEIK
# notes: one-arm IgG as m2
# Biological target: T1, Human CD137 ECD (human)
# T1 construct: also called 4-1BB
# T1 sequence (chain, as listed by the source limits assumed): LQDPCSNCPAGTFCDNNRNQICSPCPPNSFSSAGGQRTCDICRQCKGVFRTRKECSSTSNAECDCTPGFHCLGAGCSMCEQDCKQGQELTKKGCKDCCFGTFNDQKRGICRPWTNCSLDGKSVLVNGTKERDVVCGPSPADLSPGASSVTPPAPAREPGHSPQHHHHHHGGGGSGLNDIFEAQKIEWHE
# Experiment: single mutant vs template dBBDu183H
row,Binder,fold change of affinity [fold]
1,B1,0
2,B2,0
3,B3,0

# Biological target: T2, CD3 epsilon homodimer protein (UniProt P07766 23-126)
# T2 construct: also called CD3 (CD3 epsilon)
# T2 sequence (P07766 23-126): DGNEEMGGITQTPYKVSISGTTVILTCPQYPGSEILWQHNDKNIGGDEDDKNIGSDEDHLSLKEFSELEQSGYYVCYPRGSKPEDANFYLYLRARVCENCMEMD
# Experiment: SPR Biacore T200, CD3e homodimer on chip, vs unaltered GLS3000 antibody
row,Binder,ratio of amounts bound (Z=Y/X)
1,B4,0.48
2,B5,1.13
3,B6,0.41
4,B7,0.94
5,B8,0.69
6,B9,0.8
7,B10,0.72
8,B11,0.76
9,B12,1.31
10,B13,0.98
11,B14,0.82
12,B15,0.91
13,B16,0.69
14,B17,0.71
15,B18,1.16
16,B19,0.65
17,B20,1.31
18,B21,1.33
